Patent US10806913B2, “Methods for better delivery of active agents to tumors” (Sorrento Therapeutics, Inc., priority 2015, dated 2020)
“Also recorded” adds a separate entry of the source.

Columns and labels:
[1] = Blood serum absorption rate after delivery to the skin; type: in vivo; conditions: skin administration compared to i.v., s.c. or i.d.; FIG. 14
[2] = In vivo near infrared imaging of lymphatic delivery after administration to the skin; set-up: species or system rats; conditions: fluorescently tagged, needle array placed dorsally, FIG. 11 and 12
Description: The ability to deliver the protein therapeutic Etanercept directly to the lymphatic system via administration to the skin was tested. Etanercept was fluorescently tagged for in vivo visualization using near infrared light as previous described, see Sevick-Muraca et al., J. Clin Invest., 124(3), 905-914 (2014), which is incorporated by reference herein for its teachings thereof. Etanercept was administered to the skin of rats by μlacing a delivery device comprising an array of needles dorsally on the rats.

[3] = Biodistribution across tissue types after delivery to the skin; type: in vivo, rats; conditions: skin delivery compared to i.v., s.c. or i.d., FIG. 13
Description: The biodistribution of etanercept across multiple tissues types following delivery was investigated.

Etanercept
blood serum absorption rate [1]: approximately the same | lymphatic uptake and distribution to lymph nodes [2]: uptake by the lymphatic vasculature and subsequent distribution to primary and secondary lymph node tissues | lymphatic uptake and distribution to lymph nodes ([2]; listed as Etanercept): delivery directly to the lymphatic vasculature and lymph node tissues; also recorded: delivery to the axillary and mandibular lymph nodes | levels within the axillary and inguinal lymph nodes [3]: much higher levels | levels within the axillary and inguinal lymph nodes ([3]; listed as Etanercept): increased delivery to the lymph nodes
